Assay results as given in the supplement of paper PMC7877785.
± gives the uncertainty stated by the source.

Experiment: self-splicing fitness, log relative to wild type (ln ratio); higher = more splicing; Tetrahymena group I intron in knt gene, E. coli kanamycin selection, DiMSum; sequences stand for … in CUCUCU…GGAGGGAAAAGUUAUCAGGCAUGCACCUGGUAGCUAGUCUUUAAACCAAUAGAUUGCAUCGGUUUAAAAGGCAAGACCGUCAAAUUGCGGGAAAGGGGUCAACAGCCGUUCAGUACCAAGUCUCAGGGGAAACUUUGAGAUGGCCUUGCAAAGGGUAUGGUAAUAAGCUGACGGACAUGGUCCUAACCACGCAGCCAAGUCCUAAGUCAACAGAUCUUCUGUUGAUAUGGAUGCAGUUCACAGACUAAAUGUCGGUCGGGGAAGAUGUAUUCUUCUCAUAAGAUAUAGUCGGACCUCUCCUUAAUGGGAGCUAGCGGAUGAAGUGAUGCAACACUGGAGCCGCUGGGAACUAAUUUGUAUGCGAAAGUAUAUUGAUUAGUUUUGGAGUACUCGUGGUCG
How it was run: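 The eight P1ex-region nucleotides of an intron in the knt kanamycin-resistance gene on pET-22b(+) were all randomised and the library put into E. coli BL21(DE3). Six replicate transformations were grown overnight at 37°C or 30°C on LB agar with or without 25 μg/mL kanamycin, together with 100 μg/mL carbenicillin, 50 μM IPTG and 0.2% rhamnose. Colonies were pooled and amplicon-sequenced on an Illumina HiSeq 2500. Fitness from DiMSum is the error-weighted combination of wild-type-normalised replicate fold changes, kanamycin over none.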

Sequence	self-splicing fitness (ln) (30 °C)	self-splicing fitness (ln) (37 °C)
GUCAAGCAAUAUUACGGGUU	-3.26 ± 0.11	-2.31 ± 0.12
GUCAAGCAAUAUUACGGUCA	-1.24 ± 0.12	-0.86 ± 0.12
GUCAAGCAAUAUUACGGUGG	-4.45 ± 0.15	-3.19 ± 0.17
GUCAAGCAAUAUUACGUAAU	-0.836 ± 0.044	-0.385 ± 0.061
GUCAAGCAAUAUUACGUACC	-0.597 ± 0.3	-1.73 ± 0.43
GUCAAGCAAUAUUACGUCUC	-0.66 ± 0.076	-0.461 ± 0.097
GUCAAGCAAUAUUACGUGAU	-4.06 ± 0.23	-3.23 ± 0.27
GUCAAGCAAUAUUACGUUCU	-1.88 ± 0.07	-1.3 ± 0.087
GUCAAGCAAUAUUACGUUGA	-2.64 ± 0.21	-3.51 ± 0.4
GUCCAGCAAUAUUACGACCU	-2.17 ± 0.19	-1.13 ± 0.2
GUCCAGCAAUAUUACGAGAC	-3.46 ± 0.23	-1.82 ± 0.23
GUCCAGCAAUAUUACGAGCC	-1.18 ± 0.15	-0.519 ± 0.16
GUCCAGCAAUAUUACGAUUC	-0.315 ± 0.055	0.0606 ± 0.075
GUCCAGCAAUAUUACGCGAC	-3.04 ± 0.19	-2.86 ± 0.21
GUCCAGCAAUAUUACGCGAG	-0.816 ± 0.088	-0.322 ± 0.1
GUCCAGCAAUAUUACGCGUU	-0.325 ± 0.078	0.304 ± 0.1
GUCCAGCAAUAUUACGCUAC	-4.03 ± 0.16	-2.96 ± 0.14
GUCCAGCAAUAUUACGGAAU	-0.712 ± 0.079	0.0755 ± 0.094
GUCCAGCAAUAUUACGGAGA	-0.714 ± 0.096	0.585 ± 0.11
GUCCAGCAAUAUUACGGCCU	-3.36 ± 0.2	-1.14 ± 0.13
GUCCAGCAAUAUUACGGGUU	-1.58 ± 0.07	-1.03 ± 0.073

Sequence	self-splicing fitness (ln) (30 °C)	self-splicing fitness (ln) (37 °C)
GUCCAGCAAUAUUACGGUAG	-2.08 ± 0.083	-1.61 ± 0.096
GUCCAGCAAUAUUACGGUAU	-0.797 ± 0.052	0.0993 ± 0.064
GUCCAGCAAUAUUACGGUCA	-0.244 ± 0.07	-0.0837 ± 0.072
GUCCAGCAAUAUUACGUCAC	-2.41 ± 0.14	-0.6 ± 0.13
GUCCAGCAAUAUUACGUCGU	-0.0754 ± 0.066	-0.486 ± 0.088
GUCCAGCAAUAUUACGUCUC	0.725 ± 0.087	-0.134 ± 0.087
GUCCAGCAAUAUUACGUGGA	-3.34 ± 0.21	-1.91 ± 0.19
GUCCAGCAAUAUUACGUGGC	-3.97 ± 0.24	-3.46 ± 0.39
GUCGAGCAAUAUUACGAAUA	-2.42 ± 0.36	-2.1 ± 0.34
GUCGAGCAAUAUUACGACAG	-2.66 ± 0.23	-1.75 ± 0.28
GUCGAGCAAUAUUACGACAU	-0.997 ± 0.015	-0.465 ± 0.033
GUCGAGCAAUAUUACGACUG	-3.17 ± 0.45	-0.232 ± 0.18
GUCGAGCAAUAUUACGAUCU	-2.87 ± 0.18	-0.451 ± 0.12
GUCGAGCAAUAUUACGAUUC	-1.64 ± 0.24	-0.941 ± 0.26
GUCGAGCAAUAUUACGAUUU	-0.559 ± 0.2	-0.273 ± 0.19
GUCGAGCAAUAUUACGCAUA	-2.14 ± 0.18	-1.6 ± 0.16
GUCGAGCAAUAUUACGCGCU	-2.6 ± 0.3	-1.17 ± 0.32
GUCGAGCAAUAUUACGCGGA	-3.08 ± 0.29	-1.25 ± 0.19
GUCGAGCAAUAUUACGGAGG	-3.76 ± 0.39	-2.17 ± 0.23
GUCGAGCAAUAUUACGGAUA	–	-1.25 ± 0.27
GUCGAGCAAUAUUACGGUAG	-2.02 ± 0.11	-2.54 ± 0.25
